Results from paper PMC3707082.

Key:
[1] = target: C-terminally truncated PTEN (t-PTEN, aa 1-378) (human) (UniProt P60484)
[2] = target: C-terminally truncated PTEN (t-PTEN, aa 1-378) (human) (UniProt P60484); remark: listed apart in the source

inhibition of t-PTEN soluble PIP3 (diC6-PIP3) phosphatase activity by the peptide in trans, malachite green phosphate release, IC50 [1]: 1000 nM | extent of inhibition of the lipid phosphatase activity of t-PTEN by 4p-25mer with soluble PIP3 substrate [2]: > 95%
Substance: synthetic C-tail tetraphosphorylated peptide (aa 379-403, 4p-25mer) (from UniProt P60484 379-403)
